Blank lines part the entries; values can stand above or below the binder they belong to.
How the values were obtained:
GST-HYH [1] = target: T1, GST-HYH (Arabidopsis thaliana, UniProt Q8W191 1-149); assay: competition; unlabeled competitor vs N1; EMSA: 2 ug protein in 20 uL, 10 mM Tris-HCl pH 7.5, 50 mM KCl, 1 mM DTT, 50 ng/uL poly(dI-dC), 25 C, 20 min; 4-6% native PAGE, 0.5x TBE; conditions: protein: recombinant; tags: GST (pGEX-4T-1); chain copies: 2; label: unlabeled
T1 sequence: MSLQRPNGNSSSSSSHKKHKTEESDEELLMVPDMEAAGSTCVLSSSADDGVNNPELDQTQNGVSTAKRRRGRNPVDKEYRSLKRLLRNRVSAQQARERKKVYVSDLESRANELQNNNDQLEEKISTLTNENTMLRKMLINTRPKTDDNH

His-HY5 [2] = target: T2, His-HY5 (Arabidopsis thaliana, UniProt O24646 1-168); assay: as above; conditions: protein: recombinant; tags: His; chain copies: 2; label: unlabeled
T2 sequence: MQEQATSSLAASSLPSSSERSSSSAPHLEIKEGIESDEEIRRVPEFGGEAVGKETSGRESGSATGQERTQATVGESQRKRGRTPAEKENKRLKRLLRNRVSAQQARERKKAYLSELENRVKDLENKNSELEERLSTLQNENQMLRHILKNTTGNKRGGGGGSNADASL

His-RSM1 = target: T3, His-RSM1 (Arabidopsis thaliana, UniProt Q9SIJ5 1-101); assay: EMSA; EMSA: 2 ug protein in 20 uL, 10 mM Tris-HCl pH 7.5, 50 mM KCl, 1 mM DTT, 50 ng/uL poly(dI-dC), 25 C, 20 min; 4-6% native PAGE, 0.5x TBE; conditions: protein: recombinant, tags: His (pET28a)
T3 sequence: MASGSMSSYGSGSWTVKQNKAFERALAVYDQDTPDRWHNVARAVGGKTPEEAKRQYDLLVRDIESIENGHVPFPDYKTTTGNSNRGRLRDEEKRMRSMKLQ

GST-HY5 = target: T4, GST-HY5 (Arabidopsis thaliana, UniProt O24646 1-168); assay: as above; conditions: protein: recombinant; tags: GST (pGEX-4T-1 in Methods); chain copies: 2; label: biotin 5' on both strands; blunt
T4 sequence: T2 sequence

GST-HYH [3] = target: T1, GST-HYH; assay: as above; conditions: protein: recombinant; tags: GST (pGEX-4T-1); chain copies: 2; label: biotin 5'
His-HY5 [4] = target: T2, His-HY5; assay: as above; conditions: protein: recombinant; tags: His; chain copies: 2; label: biotin 5'
[5] = target: T5, GST-HY5 (ELONGATED HYPOCOTYL 5) (Arabidopsis, UniProt O24646 1-168); assay: pull-down; 2 ug GST or GST fusion protein mixed with 2 ug His-RSM1 in 500 uL GST binding buffer (50 mM Tris-HCl pH 7.5, 100 mM NaCl, 0.1% Nonidet P-40), Glutathione Sepharose 4B beads, 4 C, 2 h; four washes; immunoblot with anti-GST or anti-His; conditions: both partners purified
T5 construct: HY5 (ELONGATED HYPOCOTYL 5), bZIP transcription factor, Arabidopsis, At5g11260; the CDS cloned into the EcoRI and XhoI sites of pGEX-4T-1
T5 sequence (looked up): T2 sequence

B1: RSM1 promoter m1 competitor (dsDNA)
DNA 1: GCTGCAAGAATGACGTCATAACCACTAA
DNA 2: TTAGTGGTTATGACGTCATTCTTGCAGC
binding result (GST-HYH [1]): binds
binding result (His-HY5 [2]): binds

B2: ABI5 promoter probe (HY5 site) (dsDNA)
DNA 1: CCTTATGCAGTGAATAGTCCACGTGCACTCCCAATGGAAGTTCGGAATC
DNA 2: GATTCCGAACTTCCATTGGGAGTGCACGTGGACTATTCACTGCATAAGG
binding result (His-RSM1; label: biotin 5' on both strands, blunt): no binding
binding result (GST-HY5): binds

B3: RSM1 promoter P1 (dsDNA)
DNA 1: GAGACTTGTCCCTAACTTTCAACCAAAGACTTGTAATTTTCCGCGAGCAC
DNA 2: GTGCTCGCGGAAAATTACAAGTCTTTGGTTGAAAGTTAGGGACAAGTCTC
binding result (His-RSM1; label: biotin 5'): binds

B4: RSM1 promoter C-box probe (WT) (dsDNA)
DNA 1: ATCTAGAGAATGACGTCATAACCACTAA
DNA 2: TTAGTGGTTATGACGTCATTCTCTAGAT
binding result (GST-HYH [3]): binds
binding result (His-HY5 [4]): binds

B5: RSM1 promoter m2 competitor (dsDNA)
DNA 1: ATCTAGAGAATAGTACTATAACCACTAA
DNA 2: TTAGTGGTTATAGTACTATTCTCTAGAT
binding result (GST-HYH [1]): no binding
binding result (His-HY5 [2]): no binding

B6: RSM1 promoter m3 competitor (dsDNA)
DNA 1: ATCTAGAGAATGACGTCATAACTGTCGG
DNA 2: CCGACAGTTATGACGTCATTCTCTAGAT
binding result (GST-HYH [1]): binds
binding result (His-HY5 [2]): binds

B7: RSM1 promoter P2 (dsDNA)
DNA 1: GTGAGCTTTGTGCTCTGATTAGAGACCAGACTGTTCCATGAATTAAGTAC
DNA 2: GTACTTAATTCATGGAACAGTCTGGTCTCTAATCAGAGCACAAAGCTCAC
binding result (His-RSM1; label: biotin 5'): binds

binding result [5]: binds
B8: His-RSM1 (RADIALIS-LIKE SANT/MYB 1) (natural protein, Arabidopsis, UniProt Q9SIJ5 1-101, looked up)
chain: T3 sequence
notes: the CDS of RSM1 cloned into the BamHI and SacI sites of pET28a; also called MEE3; MATERNAL EFFECT EMBRYO ARREST 3; source: E. coli BL21 (pET28a-RSM1, 1 mM IPTG), purified with Ni-NTA beads

Reference: publication PMC6317822, “RSM1, an Arabidopsis MYB protein, interacts with HY5/HYH to modulate seed germination and seedling development in response to abscisic acid and salinity” (PLoS Genetics, 2018)
